{
  "source": "paper PMC10505172",
  "about": "(2023)",
  "key": {"[1]": {"biological_target": "T1, HIS:SUMO:HD2 fusion protein (tick; entry name EVA4_RHISA, the …)", "assay": "BLI"}, "[2]": {"biological_target": "T1, HIS:SUMO:HD2 fusion protein", "assay": "BLI", "remark": "listed apart in the source"}},
  "note": "Several values for one entry are separate records, joined by “and”; a condition that tells them apart may be missing. Equal entries are not always repeated. Where two headings read alike, the source gives them in different places.",
  "data": [
    {"binder": "CCL8 (ligand) QPDSVSIPITCCFNVINRKIPIQRLESYTRITNIQCPKEAVIFKTKRGKEVCADPKERWVRDSMKHLDQIFQNLKP", "values": [
      {"measurement": "Kd", "setting": "[1]", "value": "142 nM and 84.9 nM"},
      {"measurement": "Kd", "setting": "[2]", "value": 142, "unit": "nM"}
    ]}
  ]
}
